Experimental data as given in patent US10696719B2, “Nucleoside triphosphate transporter and uses thereof” (THE SCRIPPS RESEARCH INSTITUTE, priority 2016, dated 2020).

Assays:
Assay type in all cases: cell-based
[1] = system: E. coli BL21(DE3)
Method: (§1) Unless otherwise stated, liquid bacterial cultures were grown in 2×YT (casein peptone 16 g/L, yeast extract 10 g/L, NaCl 5 g/L) supplemented with potassium phosphate (50 mM, pH 7), referred to hereafter as “media”, and incubated at 37° C. in a 48-well flat bottomed plate (CELLSTAR, Greiner Bio-One) with shaking at 200 rpm. Solid growth media was prepared with 2% agar. Antibiotics were used, as appropriate, at the following concentrations: carbenicillin, 100 μg/mL; streptomycin, 50 μg/mL; kanamycin, 50 μg/mL; zeocin, 50 μg/mL; chloramphenicol, 33 μg/mL for plasmids, 5 μg/mL for chromosomal integrants. All selective agents were purchased commercially. Cell growth, indicated as OD600, was measured using a Perkin Elmer Envision 2103 Multilabel Reader with a 590/20 nm filter.
(§2) Doubling times for strains grown in the dATP uptake assay were calculated by doubling time as (t2−t1)/log2(OD600,2/OD600,1), averaging across three, ˜30 min time intervals roughly corresponding to 30 min prior to dATP uptake and 60 min during dATP uptake.

[2] = system: E. coli BL21(DE3); assay: dATP uptake assay
Method: (§3) Radioactive uptake assays were conducted as described in Haferkamp, et al., “Tapping the nucleotide pool of the host: novel nucleotide carrier proteins of Protochlamydia amoebophila,” Mol. Microbiol. 60, 1534-1545 (2006) with the following modifications: C41(DE3) and BL21(DE3) strains carrying plasmid-based transporters and their appropriate empty plasmid controls, as well as BL21(DE3) chromosomal transporter integrants and their appropriate isogenic transporter-less control, were grown overnight with appropriate antibiotics (streptomycin for pCDF plasmids and chloramphenicol for pSC plasmids and integrants) in 500 μL of media. Cultures were diluted to an OD600 of 0.02 in 500 μL of fresh media, grown for 2.5 h, induced with IPTG (0-1 mM, pCDF strains only) or grown (all other strains) for 1 h, and incubated with dATP spiked with [α-^32P]-dATP (final concentration=250 μM (0.5 μCi/mL)) for ˜1 h. […]
(§4) Following incubation with dATP, 200 μL of each culture was collected through a 96-well 0.65 μm glass fiber filter plate (MultiScreen, EMD Millipore) under vacuum and washed with cold potassium phosphate (3×200 μL, 50 mM, pH 7) and cold ddH2O (1×200 μL). […] The resulting image was quantified by densitometric analysis using Image Studio Lite (LI-COR). […]

[3] = system: E. coli C41(DE3); assay: dATP uptake assay
Method: as §3, §4

[4] = system: E. coli C41(DE3); assay: growth / toxicity of transporter expression
Method: as §1, §2

| Molecule | toxicity of expression [1] | uptake of [α-32P]-dATP [2] | uptake of [α-32P]-dATP [3] | toxicity of expression [4] |
| --- | --- | --- | --- | --- |
| T7 RNAP: T7 RNA polymerase expressed in the E. coli (DE3) host strains | toxic |  |  |  |
| PtNTT2(66-575): N-terminally truncated PtNTT2 variant, amino acids 1-65 removed, SEQ ID NO: 4 (protein, listed as Phaeodactylum tricornutum) MGGSTVAPTTPLATGGALRKVRQAVFPIYGNQEVTKFLLIGSIKFFIILALTLTRDTKDTLIVTQCGAEAIAFLKIYGVLPAATAFIALYSKMSNAMGKKMLFYSTCIPFFTFFGLFDVFIYPNAERLHPSLEAVQAILPGGAASGGMAVLAKIATHWTSALFYVMAEIYSSVSVGLLFWQFANDVVNVDQAKRFYPLFAQMSGLAPVLAGQYVVRFASKAVNFEASMHRLTAAVTFAGIMICIFYQLSSSYVERTESAKPAADNEQSIKPKKKKPKMSMVESGKFLASSQYLRLIAMLVLGYGLSINFTEIMWKSLVKKQYPDPLDYQRFMGNFSSAVGLSTCIVIFFGVHVIRLLGWKVGALATPGIMAILALPFFACILLGLDSPARLEIAVIFGTIQSLLSKTSKYALFDPTTQMAYIPLDDESKVKGKAAIDVLGSRIGKSGGSLIQQGLVFVFGNIINAAPVVGVVYYSVLVAWMSAAGRLSGLFQAQTEMDKADKMEAKTNKEK | little increase in toxicity | increased levels | reduced uptake | lower toxicity relative to the full length PtNTT2 |
| PtNTT2: nucleoside triphosphate transporter from Phaeodactylum tricornutum, full length, SEQ ID NO: 1 (protein, listed as Phaeodactylum tricornutum) MRPYPTIALISVFLSAATRISATSSHQASALPVKKGTHVPDSPKLSKLYIMAKTKSVSSSFDPPRGGSTVAPTTPLATGGALRKVRQAVFPIYGNQEVTKFLLIGSIKFFIILALTLTRDTKDTLIVTQCGAEAIAFLKIYGVLPAATAFIALYSKMSNAMGKKMLFYSTCIPFFTFFGLFDVFIYPNAERLHPSLEAVQAILPGGAASGGMAVLAKIATHWTSALFYVMAEIYSSVSVGLLFWQFANDVVNVDQAKRFYPLFAQMSGLAPVLAGQYVVRFASKAVNFEASMHRLTAAVTFAGIMICIFYQLSSSYVERTESAKPAADNEQSIKPKKKKPKMSMVESGKFLASSQYLRLIAMLVLGYGLSINFTEIMWKSLVKKQYPDPLDYQRFMGNFSSAVGLSTCIVIFFGVHVIRLLGWKVGALATPGIMAILALPFFACILLGLDSPARLEIAVIFGTIQSLLSKTSKYALFDPTTQMAYIPLDDESKVKGKAAIDVLGSRIGKSGGSLIQQGLVFVFGNIINAAPVVGVVYYSVLVAWMSAAGRLSGLFQAQTEMDKADKMEAKTNKEK |  |  |  | toxic |
